Reference: patent US20140056907A1 (Regeneron, published 2014)
Values belong to the binder of their own block, whether it stands above or below them.

Target: T1, human ASIC1/ASIC3 channels (co-expressed human ASIC1a and human ASIC3) (human, UniProt Q9UHC3 1-531)
T1 construct: whole, on cells; 3T3 cells co-expressing both subunits; also called 3T3/hASIC1/3; 3T3-hASIC1/ASIC3
T1 sequence 1: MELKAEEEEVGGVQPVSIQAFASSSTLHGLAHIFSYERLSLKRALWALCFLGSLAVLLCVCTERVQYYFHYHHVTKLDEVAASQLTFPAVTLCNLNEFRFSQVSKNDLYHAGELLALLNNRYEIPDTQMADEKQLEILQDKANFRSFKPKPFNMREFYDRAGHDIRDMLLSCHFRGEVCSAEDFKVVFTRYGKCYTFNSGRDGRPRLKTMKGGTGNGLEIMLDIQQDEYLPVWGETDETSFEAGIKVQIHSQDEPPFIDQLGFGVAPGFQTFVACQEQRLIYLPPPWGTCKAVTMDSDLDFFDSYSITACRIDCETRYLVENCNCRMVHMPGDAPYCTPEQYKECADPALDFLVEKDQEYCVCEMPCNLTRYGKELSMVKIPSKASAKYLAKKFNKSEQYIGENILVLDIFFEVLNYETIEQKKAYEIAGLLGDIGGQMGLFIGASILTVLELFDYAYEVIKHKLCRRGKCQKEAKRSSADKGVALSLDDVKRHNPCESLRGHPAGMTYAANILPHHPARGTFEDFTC
T1 sequence 2: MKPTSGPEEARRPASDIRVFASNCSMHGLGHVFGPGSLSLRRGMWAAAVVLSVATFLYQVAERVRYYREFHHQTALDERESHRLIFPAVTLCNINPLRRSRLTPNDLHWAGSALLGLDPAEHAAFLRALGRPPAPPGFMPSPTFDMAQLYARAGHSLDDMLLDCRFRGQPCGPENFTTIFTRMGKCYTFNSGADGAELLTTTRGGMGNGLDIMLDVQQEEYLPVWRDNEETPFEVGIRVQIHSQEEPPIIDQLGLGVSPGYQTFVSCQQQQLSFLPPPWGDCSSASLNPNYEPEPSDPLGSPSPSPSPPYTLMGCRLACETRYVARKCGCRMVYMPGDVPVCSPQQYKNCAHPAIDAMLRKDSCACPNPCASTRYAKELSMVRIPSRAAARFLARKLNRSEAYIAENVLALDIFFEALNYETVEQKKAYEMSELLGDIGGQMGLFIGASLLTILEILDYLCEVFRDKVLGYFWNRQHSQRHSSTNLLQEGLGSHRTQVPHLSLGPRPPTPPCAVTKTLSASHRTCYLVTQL
Test: FACS, 3T3/hASIC1/3 cells, 10 nM antibody
Description: For these experiments, four cell lines were constructed: (a) a mouse fibroblast 3T3 cell line stably transfected to overexpress full length human ASIC3 (3T3/hASIC3; amino acids 1-531 of NCBI accession number NP_{—}004760.1), (b) a 3T3 cell line stably transfected to co-express full length human ASIC1a and human ASIC3 (3T3/hASIC1/3; amino acids 1-528 of NCBI accession number NP_{—}001086.2 and amino acids 1-531 of NCBI accession number NP_{—}004760.1), (c) […] a stably transfected 3T3 cell line expressing the full-length mouse ASIC3 channel (3T3/mASIC3; amino acids 1-530 of NCBI accession number NP_{—}892045.2), and (d) a 3T3 cell line stably transfected to co-express full length mouse ASIC1a and mouse ASIC3 (3T3/mASIC1/3; amino acids 1-526 of NCBI accession number NP_{—}033727 and amino acids 1-530 of NCBI accession number NP_{—}892045.2). Antibody binding was determined using flow cytometry (FACS).
To perform the FACS binding experiments, adherent cells were collected with cold Millipore Accutase 3-5 minutes, spun and resuspended in ice-cold FACS buffer (PBS, 2% HI-FBS and 0.09% Na-azide). Anti-ASIC1 antibody at final concentrations of 10 nM was added for 20-30 minutes on ice. Cells were washed with 900 μL ice-cold FACS buffer, spun, and resuspended in 100 μL ice-cold FACS buffer. A secondary antibody which recognizes human Fc (Jackson Immuno Research, #109-136-098) and is conjugated to allophycocyanin, was then added to the cell mixture at a final concentration of 2.5 ug/mL. After incubating for 20 minutes on ice, the cells were washed and resuspended in FACS buffer, then sorted and analyzed on a flow cytometer (FACSCanto II, BD Biosciences, San Jose, Calif.) to determine relative binding by the candidate antibodies to the tested cell lines. Histograms of cells stained with anti-ASIC1 antibodies were compared with those of cells stained with secondary antibody alone. Percentage of ASIC1 signal over secondary antibody alone was calculated using FlowJo software (Tree Star, Ashland, Oreg.).

binding result: binds
B1: H3M6726N (antibody, V domains shown)
VH: EVQLLESGGVLVQPGGSLRLSCAASGFNFNNYDMSWVRQAPGKGLEWVSVISASGRNTYYADSVKGRFTISRDNSKISLYLQMNSLRPEDTAVYYCAKDHLVHYYYGMDVWGQGTTVTVSS
VL: DIMMTQSPLSLSVTPGEPASISCRSSQSLLHSNGYNYLDWYLQKSGQSPHLLIYLGSNRASGVPDRFSGSGSGTDFTLKISRVEAEDGGVYYCMQALQTPRTFGQGTKVEIK
notes: Chimeric: human variable, mouse constant domains; H3M prefix marks the Fc, isotype not spelled out

binding result: binds
B2: H3M7102N (antibody, V domains shown)
VH: EVQLLASGGGLVQPGGSLRLSCAASGFTFSSFAMSWVRQAPGKGLEWVSGISGSGGSTYYADSVKGRFTISRDNSKNTLYLQMNSLRAEDTAAYYCAKEAYKWQPWGQGIRVTVSS
VL: DIQMTQSPSTLSASVGDRVSITCRASQSISSWLAWYQQKPGKAPKLLIYKASNLDSGVPSRFSGSGSGTDFTLTISSLQPDDFATYYCQQYNSYSYTFGQGTKLEIK
notes: as for B1
